Source: article PMC9378758

Biological target: Chikungunya virus (CHIKV) strain S27 E1 glycoprotein (Chikungunya virus strain S27)
Assay: cryo-EM structure; cryo-ET with sub-tomogram averaging (PEET) of 591 protein spikes on liposomes after completed fusion with CHIKV at low pH, late time points, room temperature; 27.2 Å at 0.5 FSC; 3-fold symmetry seen before it was imposed

Question: Which stoichiometry N does the source give for “Chikungunya virus (CHIKV) strain S27 E1 glycoprotein (natural protein)” here?
Answer: Its stoichiometry N is 3.
